According to the nanobody polyreactivity screen of Harvey et al. (2022):

Assay: yeast display, Sf9 membrane polyspecificity reagent, FACS + sequencing; frameworks hold sequencing errors
In short: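 Nanobodies from a synthetic yeast display library (Saccharomyces cerevisiae BJ5465), induced 36–48 hours with galactose, were stained 1 hour at 4 °C with 10% biotinylated, detergent-solubilized Sf9 membrane reagent, enriched on streptavidin microbeads, then FACS-sorted. Anti-HA (expression) and streptavidin (reagent binding) fluorescence set low and high (top ~1%) gates. Polyreactivity labels come from the gate of origin. Genes were colony-PCR amplified, MiSeq 2 × 250 sequenced and filtered by CDR length.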

Sequence | polyreactivity (PSR sort gate)
QVQLVESGGGLVQAGGSLRLSCAASGSIVWYNAMGWYRPAPGKERELVAAITWSGGSTYYADSVKGRFTISRDNAKNTVYLQMNSLKPEDTAVYYCAADVKRDRVWGGDYWGQGTQVTVSS | low polyreactivity
QVQLVESGGGLVQAGGSLRLSCAASGSIYNRYAMGSYRQAPRQERELVAAITQSTDSTYYADSVKGRITISRDNAMITVYLQMNSLKPEDTAVYYCAAYLVYYRPYAYGYWGQGTQVTVSS | low polyreactivity
QVQLVESGGGLVQAGGSLRLSCAASGSIYPNAMGWNRQAPGKERELVAAIRRSSGSTYADSVKGRFTISRDNAKNTVYLQMNSLKPEDTAVYYCAAEWFAQPVGYDYWGQGTQVTVSS | high polyreactivity
QVQLVESGGGLVQAGGSLRLSCAASGSIYPYNAIGLYRQAPGKERELVAAISYRGGRTYYADSVMGRFTISRDNAKNTVYLQKNSLKPEDTAVYYCNADSIYSARGWLYGYWGQGTQVTVSS | low polyreactivity
QVQLVESGGGLVQAGGSLRLSCAASGSIYRYAMGWYRQAPGKERELVAAINFNGGRTYYADSVKGRFTISRDNAKNTVYLQMNSLKPEDTAVYYCAAVRSSNQGGFDYWGHGTQVTVSS | high polyreactivity
QVQLVESGGGLVQAGGSLRLSCAASGSIYTHNAMGWSRQAPGKERELVAAISSGGSTNYADSVKGRFTISRDNAKNTVYLQMNSLKPEDTAVYYCAKSIDGWYWRRRRYDYWGQGTQVTVSS | low polyreactivity
QVQLVESGGGLVQAGGSLRLSCAASGSIYTNAMGRYRQAPGKERELVAAISWSGGRTYYADSVKGRFTISRDNAKNTVYLQMNILKPEDTAVYYCNTRGTRIASGHYYWGQGNQVTVSS | high polyreactivity
QVQLVESGGGLVQAGGSLRLSCAASGSIYTNAMGWYRQAPGKERELVAAISWSGGRTYYADSVKGRFTISRDNAKNTVYLQMNSLKPEDTAVYYCNTRGTRIASGHYYWGQGTQVTVSS | high polyreactivity
QVQLVESGGGLVQAGGSLRLSCAASGSIYTWYAMVWYRQAPGKERELVAAITRGGSTYADSVKGRFTISRDNAKNTVFLQMNSLKPEDTAVYYCATDLQPRSFLYWYNYWGQGTQVTVSS | low polyreactivity
QVQLVESGGGLVQAGGSLRLSCAASGSIYVYYGMGWYRQAPGKERELVAAISSGGSTHYADSVKGRFTISRDNAKNTVYLQMNSLKPEDTAVYYCAADRFFWLRSYPRYYYWGQGTQVTVSS | low polyreactivity
QVQLVESGGGLVQAGGSLRLSCAASGSIYWINTSMGWYIQAPGKERELVAAITWSSGGTYYADSVKGRFTISRDNAKKTVYLQMNSLKPEDTAVYYCAKVRFFWYRMGYWGQGTQVTVSS | high polyreactivity
QVQLVESGGGLVQAGGSLRLSCAASGSIYYAMGWYRQAPGKEREFVAAINSGGSTYYADSVKGRFTISRDNAKNTVYIQMNSLKPEDTAVYYCAKPTYRFYWGDFDYWGQGTQVTVSA | low polyreactivity
QVQLVESGGGLVQAGGSLRLSCAASGSIYYAMGWYRQAPGKESEFVAAINSGGSTYYADSVKGRFTISRDNAKNTVYLQMNSLKPEDTAVYYCAKPTYRFYWGDFDYWGQGTQVTVSS | low polyreactivity
QVQLVESGGGLVQAGGSLRLSCAASGSIYYTNAMGWYRQAPGKERELVAAIRWSGGRTYYADSVKGRFTISRDNAKNTVYLQMNSLKPEDTAVYYCNKVPRTPIPYKYGYWGQGTQVTVSS | high polyreactivity
QVQLVESGGGLVQAGGSLRLSCAASGSIYYYVMGWYRQAPGKERELVAAISRSTGRTYYADSVKGRFTISRDNAKNTVYLQMNSLKPEDTAVYYCNKVVPHKPPTMDYWGQGTQVTVSS | high polyreactivity
QVQLVESGGGLVQAGGSLRLSCAASGSIYYYYAMGWYRQAPGKERELVAAIRRRGGTTYYADSVKGRFTISRDNAKNTVSLQMISLKPEDTAVYYCAARSKSAYWGQGTQVTVSS | high polyreactivity
QVQLVESGGGLVQAGGSLRLSCAASGSLFERYAMGWNRQAPGKEREFVATITSGGGRTYYADSVKGRFTISRDNAKNTVYLQMNSLKPEDTAVYYCNAVYRARSYDYWGQGTQVTVSS | high polyreactivity
QVQLVESGGGLVQAGGSLRLSCAASGSLFGRYTMGWYRQATGKDREFVAAIDRVGITNYADSVKGRFTISRDNAKNTVYLQMNSLKPEDTAVYYCAADYGAIRPRDFIEVPGHYDYWGQGTQVTVSS | low polyreactivity
QVQLVESGGGLVQAGGSLRLSCAASGSLFGYNAIGRYRQARGKERELVAAITGSGGSTYYADSVKGRFTLSRDNAKNTVYFQMNSLKPEDTAVYYCADDLFGGPLGYWDYDYWGQGTQVTVSS | low polyreactivity
QVQLVESGGGLVQAGGSLRLSCAASGSLFNLYAMGWYIQAPGKERELVAAISWSGGRTFYADSVKGRFTISRDNAKNTVFLQMNSLKPEDTAVYDCAARSSRTTRQGYDYWGQGTQVNVSS | high polyreactivity
QVQLVESGGGLVQAGGSLRLSCAASGSLFRYYAMGWYRQAPGTERELVAAITGRGGSTYYADSVKGRFTISRDNAKNTVYLQMNSLKPEDTAVYYCADYIDANVHRFDYWGQGTQVTVSS | low polyreactivity
QVQLVESGGGLVQAGGSLRLSCAASGSLFSTYAMGWYRPAPGKERELVAAIPTSGGRTYYADSVKGRFTISRDNAKNTVYLQMNSLKPEDTAVYDCNAVRGGRYGLDYWGQGTQVTVSS | high polyreactivity
QVQLVESGGGLVQAGGSLRLSCAASGSMFVVYAMGWYRQGPGKERELVAAISWGIGSTYYADSVKGRFTISRDNAKNTVYLQMNSLKPEDTADYYCAADTDIVLYDYWGQGTQVTVSS | low polyreactivity
QVQLVESGGGLVQAGGSLRLSCAASGSMFYYYAMGWYRQAPGKERELVAAISSAGITNYADSVKGRFTISRDNAKNTVYLQMNSLKPEDTAVSYCAAAVFDIYWFLGEAYYFQYDYWGQGTQVTVSS | high polyreactivity
QVQLVESGGGLVQAGGSLRLSCAASGSNFAYNAMGWYRQAPGKERELVAGITTSGSRTYYADSVKGRFTISRDNAKNTVYLQMNSLKPEDTAVYYCAADPYFYPIYDYWGQGTQVTVSS | low polyreactivity
QVQLVESGGGLVQAGGSLRLSCAASGSNFEYYTMGWYRQAPGKEREFVAAITFTGDSTYYADSVKGRFTSSRDNAKNTVYLQMNSLTPEDTAVYYCNDDSDTYDGEYDYWGQGTQVTVSS | low polyreactivity
QVQLVESGGGLVQAGGSLRLSCAASGSNFGYNALGWYRQAPGKDRELVAAITGSGGSTYYADSVKGRFTISRDNAKNTVYLQMNSLKPEDTAVYYCAHDLFGGPLGYWDYDYWGQGTQVTVSS | low polyreactivity
QVQLVESGGGLVQAGGSLRLSCAASGSNFLYNAMGWYRQAPGKERELVAAITQGGGSTYYADSVKGRFTISLDIAKNTVYLQMISLKPEDTAVYYCNKASFYDAHRLDYWGQGTQVTVSS | high polyreactivity
QVQLVESGGGLVQAGGSLRLSCAASGSNFPGYAMGWYRQAPGKERELVAAISTSGGSTYADSVKGRFTISRDNAKNTVYLQMNSLKPEDTAVYYCAATYTYTSPVYYSLDGPWPYDYWGQGTQVTVSS | low polyreactivity
QVQLVESGGGLVQAGGSLRLSCAASGSNFPLNPMGWYRPSPGKERELVAAISSSTGSTSYADSVKGRFTISRDNAKNTVYLQMNSLKPEDTAVYYCAAETPYIVDYWGQGTQVTVSS | high polyreactivity
